Test results as given in patent US20240277818A1, “COMPOSITION INCLUDING A METAL-ORGANIC FRAMEWORK (MOF) NANOPARTICLE FOR ORAL PROTEIN ADMINISTRATION” (UNIVERSITY OF NORTH TEXAS, priority 2023, published 2024).

Tests used:
[1] = In vivo pharmacokinetics, serum INS (UiO-68-NH2 nanosystems)
Protocol: The rats and mice fasted overnight before experiments and then administered different samples by gavage. The […] effect was tested following the oral administration of I@U and T@I@U (20 IU/kg). As control groups, one group of rats were administered free INS (20 IU/kg) by oral gavage, and the other group was administered free INS (5 IU/kg) by s.c. injection. Blood samples were collected from the orbital venous plexus and analyzed using a blood glucose meter, expressed as the percentage of baseline serum glucose level (0 h) at different periods. The INS contents in blood samples were measured using the bovine INS ELISA kit. The 0 h INS content was subtracted from the INS measured at different time intervals and plotted.
Hypoglycemic effects (FIG. 7A, B) and insulin levels in the serum of SD rats (FIG. 7C) were tested after administration of equal amounts of insulin I @ U and T @ I @ U (20IU/kg) to diabetic mice (BALB/C mice) and rats (SD rats) by gavage. As a control group, one group of rats was administered insulin (20 IU/kg) by gavage, and the other group was administered insulin (5 IU/kg) by subcutaneous injection.

[2] = test system: Caco-2 cell monolayers with high or low expression of PCFT; test: Transepithelial transport, TEER and INS degradation, PCN-777 nanosystems; details: 48 h of incubation
Protocol: The transepithelial transport studies were conducted following previously reported procedures. In short, the Caco-2 cells were cultured in transwell inserts for 21 days till the TEER values reached above 300Ω×cm^2. Caco-2 cell monolayers with high or low expression of PCFT were co-incubated with Free INS and I@P and I@F-P on the apical side for 48 hours. An amount of 100 μL of the sample was taken out from the basolateral side at different time intervals and 100 μL of DMEM was always supplemented to maintain a consistent volume. After 48 hours of incubation, samples of the apical and basolateral layers were collected respectively, and the cell monolayer was lysed with RIPA lysate and collected. The INS contents in each sample were then tested utilizing the bovine insulin ELISA kit. The degradation rate of INS in different preparations were calculated according to the following equation:
where m(total) is the total mass of INS added, m(apical) is the mass of INS in the apical layer, m(basolateral) is the mass of INS in the basolateral layer, and m(inside) is the mass of INS in the cell monolayer.

[3] = test system: blood glucose levels; test: In vivo pharmacodynamics of PCN-777 nanosystems in rats; parameters: species or system SD rats; details: diabetic rats
Protocol: Animal models and diabetes induction were undertaken. Male Sprague Dawley rats (180-200 g) and BALB/c mice (18-20 g) were provided by Beijing Vital River Laboratory Animal Technology Co. Ltd. New Zealand rabbits (2-2.5 kg) were provided in all the animal studies were conducted following the Chinese Regulations for the Administration of Affairs Concerning Experimental Animals and performed in compliance with the guidelines of the Institutional Animal Care and Use Committee (IACUC) of Wuhan University. To establish an alloxan-induced diabetic rat model, healthy rats were intravenously injected with alloxan 50 mg/kg once and the blood glucose changes were monitored daily to confirm their diabetic status. After seven days, the blood glucose was stable at 20 mmol/L, proving the diabetes model was successfully established. The difference between the establishment of diabetes models of mice and rabbits was that the dosage of alloxan in mice and rabbits is 100 mg/kg. […] INS bioactivity in vivo was undertaken. In vivo studies were performed in alloxan-induced diabetic rats (n=five per group) and rabbits (n=three per group). […] At predetermined time intervals, blood samples were collected for glucose testing using a blood glucose meter. Serum insulin level was determined using a bovine INS ELISA kit. […]

[4] = test system: blood glucose level; test: In vivo pharmacodynamics, blood glucose after T@I@U, I@U and free INS; parameters: species or system alloxan-induced diabetic rats and mice
Protocol: In vivo INS bioactivity studies were performed in alloxan-induced diabetic animals (n=six per group). The rats and mice were induced to type I diabetes by alloxan injections. The animals were regarded as diabetic if their fasting blood glucose levels were higher than 11 mmol/L in one week after injection.

[5] = In vivo fluorescence imaging and biodistribution of PCN-777 formulations; parameters: species or system mice; rats; details: 12 h after administration
Text: In vivo fluorescence imaging is undertaken. RITC-INS, RITC-INS@P, and R-I@F-P were orally administered to the overnight fasted diabetic mice or normal mice. The SI Imaging Amix imaging system was used to assess the distribution and metabolism of INS preparations in mice with different intestinal expressions of PCFT at different time points. Another group of diabetic mice or normal mice was sacrificed twelve hours after RITC-INS, RITC-INS@P, and R-I@F-P treatment, and the organs and intestines were collected and observed. The same procedure was done to diabetic rats. The intestine loops of the RITC-INS, RITC-INS@P, and R-I@F-P medicated rats were collected by the same procedure and frozen in Tissue-Tek OCT with liquid nitrogen. Intestinal sections were obtained using a cryostat and visualized by CLSM after staining with DAPI for 10 min.

[6] = test system: trypsin; test: Protection of INS from trypsin degradation by UiO-68-NH2 nanosystems; details: trypsin-containing HBSS buffer, 37 °C, 1 h
Protocol: To determine whether UiO-68-NH2 could protect INS from digestive enzymes, the NPs were incubated in simulated intestinal fluid containing trypsin (1 mg/mL) at 37° C. Aliquots (100 μL) at specific time intervals were taken out and added 200 μL of DMSO containing 0.1% trifluoroacetic acid to stop the enzymatic reaction. The concentration of INS was determined with the Elisa kit in all the following experiments.
Aliquots (100 μL) were removed at specified time intervals, 200 μL of DMSO containing 0.1% trifluoroacetic acid was added to stop the enzymatic reaction, and the concentration of insulin in the solution was determined using an Elisa kit.

[7] = In vivo fluorescence imaging and biodistribution of RITC-INS formulations (UiO-68-NH2); parameters: species or system mice; rats
Protocol: RITC-INS, RITC-INS@U, T@RITC-INS@U were orally administered to the overnight fasted mice for in vivo fluorescence imaging. The fluorescence images of mice were captured at different time points using the SI Imaging Amix imaging system to evaluate the metabolic process of INS preparations. Another group of mice was sacrificed after 4 h of treatment. The images of organs and intestines were also obtained. Different formulations were orally administered to the overnight fasted rats for 4 h. Then the rats were sacrificed, and the intestine loops were excised and frozen in Tissue-Tek OCT with liquid nitrogen. Cross intestine sections were obtained using a freezing microtome blade and then stained the intestine sections with DAPI for 10 min and visualized by CLSM.

[8] = test system: Caco-2 cell monolayers; test: Lysosomal degradation of INS in cell monolayers, UiO-68-NH2 nanosystems; assay type: cell-based, human; details: 2 h incubation
[9] = in vivo; cited from earlier work

Substance | relative (oral) bioavailability ([1]; oral 20 IU/kg versus s.c. free INS 5 IU/kg) [%] | time of maximum serum INS level ([1]; subcutaneous 5 IU/kg) [h] | time of return of serum INS to minimum ([1]; subcutaneous 5 IU/kg) [h] | degradation of ingested INS [2] | glucose response ([3]; oral administration) | time to restoration of high blood glucose levels ([3]; subcutaneous injection) [h] | blood glucose response ([4]; oral gavage, 20 IU/kg) | time after which hypoglycemic effect wears off ([4]; subcutaneous 5 IU/kg) [h] | blood glucose level, % of the initial level ([4]; subcutaneous 5 IU/kg, at 2 h) | fluorescence in intestine epithelial tissue sections [5] | active INS remaining [6] | INS fluorescence in major organs / liver ([7]; 4 h after oral administration) | INS fluorescence in sectioned intestine epithelial tissue ([7]; confocal imaging, 2 h after administration) | ingested INS degraded [8] | duration of action [9] [h]
insulin [free INS] | 0.7 | ≤ 1 | 4 | almost completely degrades | fail to generate a significant glucose response | ≤ 4 | fails to reduce the blood glucose level | 4 | about 28% | only weak fluorescence | almost completely degraded | does not show any fluorescence signal | barely any fluorescence | about 50% | –
regular insulin: regular insulin (INS) as used by injection in diabetics | – | – | – | – | – | – | – | – | – | – | – | – | – | – | 4 to 8
